We go through 1 substance from patent publication US20210122797A1.

The target of this assay is GLP-1 receptor (on pancreatic islets of C57BL/6J mice) (mouse (islets from C57BL/6J mice)) (UniProt O35659).

Regarding “glucagon like peptide-1 (GLP-1) (ligand)”, the Insulin Secretion ng/islet/hour (glucose-stimulated insulin secretion, 16.7 mM glucose + 10 nM peptide) (ng/islet/hour) turned out to be 5.4.
